These are literature values, as cited in patent US6063755A, “Intestinal trefoil proteins” (The General Hospital Corporation, priority 1995, dated 2000).

For data set [1] the following is noted: laboratory animal; parenteral as well as oral administration.
The conditions of data set [2]: laboratory animal; parenteral as well as oral administration. This is another data set of the same source.

B1: PSP: porcine pancreatic peptide, pancreatic spasmolytic peptide; thought to include two trefoils (protein)
chain: EKPAACRCSRQDPKNRVNCGFPGITSDQCFTSGCCFDSQVPGVPWCFKPLPAQESEECVMEV
B1: in data set [1], the gastric acid secretion result is listed as “inhibit”. In addition, in data set [2], the gastrointestinal motility result was “inhibit”.
